Results reported in the supplement of paper PMC12764529.
± gives the half width of the 95% confidence interval.

Assays:
[1] = folding stability dG unfold (combined trypsin and chymotrypsin); higher = more stable
Outline: (§1)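 Designed mini-proteins with no cysteine and under 80 residues were kept only if AlphaFold2 dimer inter-PAE was above 15. In a PA-tagged cDNA display construct, they were digested with trypsin and chymotrypsin and then sequenced. K50 was inferred by Bayesian fitting of counts, and unfolding free energy was derived per protease or combined against a sequence-predicted unfolded-state K50 and a shared folded-state K50.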

[2] = folding stability dG unfold from trypsin proteolysis; higher = more stable
Outline: as §1

[3] = folding stability dG unfold from chymotrypsin proteolysis; higher = more stable
Outline: as §1

Sequence: SAGGSAGGSAGGIHIPAYEAIDFAKENADNGEPVPIEVHNPGNGKPEEREITPDDLDKISAGGSAGGSAGGS [r10_779_TrROS]
- folding stability dG unfold [1]: 0.454 ± 0.06 kcal/mol
- folding stability dG unfold [2]: 0.402 ± 0.039 kcal/mol
- folding stability dG unfold [3]: 0.428 ± 0.016 kcal/mol

Sequence: SAGGSAGGSTLRLRFRTPDGRLFEIEAEVRPDPDGRVYRLLRIREYDPETDEWLERPFRLPILSAGGSAGGS [r12_57_TrMRF]
- folding stability dG unfold [1]: 3.82 ± 0.056 kcal/mol
- folding stability dG unfold [2]: 3.77 ± 0.12 kcal/mol
- folding stability dG unfold [3]: 3.83 ± 0.019 kcal/mol

Sequence: SAGGMKKYLLTLNVTLERPDSEESITLTKEVDSLEEAEKLKEEIEKKLKEEYPGRISFDVTIEEIEESAGGS [r16_475_JUSTAS]
- folding stability dG unfold [1]: 4.13 ± 0.12 kcal/mol
- folding stability dG unfold [2]: 3.72 ± 0.1 kcal/mol
- folding stability dG unfold [3]: 4.15 ± 0.076 kcal/mol

Sequence: SAGGSAGGSEEVVVVEVEGELVVVTKEETVTVVPAPPPPPLTAEQRALAKELEKLGLEVEIRDSAGGSAGGS [r12_172_TrROS_Hall]
- folding stability dG unfold [1]: -0.38 ± 0.37 kcal/mol
- folding stability dG unfold [2]: -0.192 ± 0.16 kcal/mol
- folding stability dG unfold [3]: -0.505 ± 0.11 kcal/mol

Sequence: SAMKVEPFTFKVTFKVPVLNPETGEATEEGVEAEVVVYRSDDGTLYVVAFVKFENGKTAVFPFTIDKDGSAG [r14_50_TrMRF]
- folding stability dG unfold [1]: 3.59 ± 0.064 kcal/mol
- folding stability dG unfold [2]: 3.19 ± 0.1 kcal/mol
- folding stability dG unfold [3]: 3.781 ± 0.029 kcal/mol

Sequence: SAGGSAGGSAGPEKMRIEDIEHERNPEDGRHTVKIKIPNGPDITFQFTDPEDLDDFKLEVSAGGSAGGSAGG [r11_711_TrROS]
- folding stability dG unfold [1]: 0.0382 ± 0.22 kcal/mol
- folding stability dG unfold [2]: -0.274 ± 0.079 kcal/mol
- folding stability dG unfold [3]: 0.334 ± 0.075 kcal/mol

Sequence: SAGGSAGGSAGAPTGFIRVRVEFVTPDGQPAEADFTVPASLVDAVFRAARETGARVSLEGSAGGSAGGSAGG [r11_603_TrMRF]
- folding stability dG unfold [1]: 1.2 ± 0.068 kcal/mol
- folding stability dG unfold [2]: 0.504 ± 0.1 kcal/mol
- folding stability dG unfold [3]: 1.65 ± 0.074 kcal/mol

Sequence: SAGGSAGGIWFMIKSAEDLKNLLNKWGWTIKDISVERWENDDGYVWIPIKIKPVPPPPPPEEDKSAGGSAGG [r6_981_TrROS]
- folding stability dG unfold [1]: 3.06 ± 0.44 kcal/mol
- folding stability dG unfold [2]: 2.36 ± 0.086 kcal/mol
- folding stability dG unfold [3]: 3.77 ± 0.061 kcal/mol

Sequence: SAGGSAGGSAMKIEIEKTEDTIKVRIKRKDGKEIEIEIPKENMSLEEIKKLAEELGIEKVEPSAGGSAGGSA [r18_83_TrROS_Hall]
- folding stability dG unfold [1]: 1.6 ± 0.17 kcal/mol
- folding stability dG unfold [2]: 1.49 ± 0.17 kcal/mol
- folding stability dG unfold [3]: 1.63 ± 0.073 kcal/mol

Sequence: SAGGSAGGSAGGKKTIEIMIFYDPGDPERAKEKARDIANTLQARFPNVTVKITVFRFPNSAGGSAGGSAGGS [r10_223_TrROS]
- folding stability dG unfold [1]: 2.25 ± 0.14 kcal/mol
- folding stability dG unfold [2]: 1.87 ± 0.074 kcal/mol
- folding stability dG unfold [3]: 2.5 ± 0.048 kcal/mol

Sequence: SAGGPFRIEDISIQRDPDNGKLTIIIPFPAPPGQEIKIKVRDPGNGKEKKFDMKVEPLPNGYLTMTISAGGS [r8_195_TrROS]
- folding stability dG unfold [1]: 1.91 ± 0.21 kcal/mol
- folding stability dG unfold [2]: 1.82 ± 0.14 kcal/mol
- folding stability dG unfold [3]: 2.17 ± 0.11 kcal/mol

Sequence: SGMPTLEIEIEFPEVKGETPVPGTDRTLIDTPMKITVTKIENGPPETVEVELPPKLWTEEIEERIKKILGSA [r9_656_JUSTAS]
- folding stability dG unfold [1]: 0.485 ± 0.47 kcal/mol
- folding stability dG unfold [2]: -0.248 ± 0.66 kcal/mol
- folding stability dG unfold [3]: 1.2 ± 0.27 kcal/mol

Sequence: SAGGSAKKKIIEIKIKVKTKEEAKEAIEKLSEELKKKIKKIEIVEIKEKDGEYYVKIKIEVPPNEKSAGGSA [r15_244_TrROS_Hall]
- folding stability dG unfold [1]: 2.25 ± 0.14 kcal/mol
- folding stability dG unfold [2]: 1.97 ± 0.063 kcal/mol
- folding stability dG unfold [3]: 2.32 ± 0.075 kcal/mol

Sequence: SAGGSAGGSASNPKIISVENLGNYTVVLAEDPEDGSLVLVVINPDNNSALVFKDNKPVAVFSAGGSAGGSAG [r3_297_TrMRF]
- folding stability dG unfold [1]: 1.45 ± 0.13 kcal/mol
- folding stability dG unfold [2]: 1.33 ± 0.025 kcal/mol
- folding stability dG unfold [3]: 1.66 ± 0.11 kcal/mol

Sequence: SAGPNFKIEIVPNPNGMEPIATIRPPGRTIVIYRNSNGGYHVQRFDPNNGKPVKQFNMPAEEIIKEILSAGG [r19_188_TrROS]
- folding stability dG unfold [1]: 0.551 ± 0.19 kcal/mol
- folding stability dG unfold [2]: 0.348 ± 0.1 kcal/mol
- folding stability dG unfold [3]: 0.655 ± 0.34 kcal/mol

Sequence: SAMTPEELAARLAEALRREAEEAGLEIVDVRVEYDEETDTVTVEVVVRNKETGELVTRRVEIRSLEELLSAG [r14_409_TrROS_Hall]
- folding stability dG unfold [1]: 3.98 ± 0.1 kcal/mol
- folding stability dG unfold [2]: 4.52 ± 0.14 kcal/mol
- folding stability dG unfold [3]: 3.23 ± 0.059 kcal/mol

Sequence: STAEELATYIAKTIQKRFPPGYRITDVRIERNPNGYVELPFTIEPPNGRPWTVEIWIDADNGEIEIEIQWSA [r9_219_TrROS]
- folding stability dG unfold [1]: 2.92 ± 0.068 kcal/mol
- folding stability dG unfold [2]: 2.47 ± 0.06 kcal/mol
- folding stability dG unfold [3]: 3.183 ± 0.017 kcal/mol

Sequence: SATMLDYILDMAREQQEKNGKPVPITITIPVRRDPNGKFRMNEIHEELIKALKEAFPNVPIKIEMVPPPSAG [r14_636_TrROS]
- folding stability dG unfold [1]: 2.28 ± 0.12 kcal/mol
- folding stability dG unfold [2]: 2.23 ± 0.076 kcal/mol
- folding stability dG unfold [3]: 2.27 ± 0.036 kcal/mol

Sequence: SAGEKIKEKIKEILKELFPDAEVEIKTLPDGTIIIKLKKDKKIIVIKKTKDGKIKIVKVMTAEELKKLSSAG [r5_852_TrROS_Hall]
- folding stability dG unfold [1]: 1.51 ± 0.29 kcal/mol
- folding stability dG unfold [2]: 2.15 ± 0.079 kcal/mol
- folding stability dG unfold [3]: 1.01 ± 0.26 kcal/mol

Sequence: SAGGDMYFVTVEIWRPREPDPDGEWKWEPIPITFPFDPDQAEDFAKEIINILQKDGYHVKIKVIPMPSAGGS [r8_10_TrROS]
- folding stability dG unfold [1]: 3.17 ± 0.43 kcal/mol
- folding stability dG unfold [2]: 2.56 ± 0.1 kcal/mol
- folding stability dG unfold [3]: 3.75 ± 0.28 kcal/mol

Sequence: SMIQVDIKPDAINVTVTKEGKSVTVPMDLEELEELLKKGVEKVEIKSPDPEVLEKIKELVEKAGVPIELKSA [r9_810_JUSTAS]
- folding stability dG unfold [1]: 1.02 ± 0.25 kcal/mol
- folding stability dG unfold [2]: 1.09 ± 0.1 kcal/mol
- folding stability dG unfold [3]: 0.686 ± 0.06 kcal/mol
